Experimental findings from the supplement of paper PMC10567573 are described below.

This series is described as follows: protein stability index of a GFP-peptide fusion (GPS, HEK-293T) (PSI 1-6); higher = more stable. Conditions: c terminus: a fixed tail appended.

± gives the standard deviation.
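Note: 24-mer peptide tiles fused after GFP, lentivirally expressed, FACS-sorted into six equal bins by GFP/DsRed ratio, decoded by Illumina sequencing, PSI is the read-weighted mean bin number.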

As for CAPYDSRLLGSARPELGAALGIYG [IRX6], the protein stability index came to 2.56 ± 0.37 (treatment: DMSO) and 2.13 ± 0.55 (treatment: MLN4924 1 uM, 8 h).
For LLPLRTKVAKLLGYSTHADFVLEM [NLN], the protein stability index was found to be 2.22 ± 0.43 (treatment: DMSO) and 2.32 ± 0.28 (treatment: MLN4924 1 uM, 8 h).
With KLHKSQLSQALNGLSDRAKEAKEF [TRIM9], the protein stability index runs as follows: (treatment: DMSO) 4.11 ± 0.15; (treatment: MLN4924 1 uM, 8 h) 4.17 ± 0.22.
For the sequence AGIALYSHEDVCVFKCSVSRETEC [CARM1], the protein stability index reads like this: (treatment: DMSO) 3 ± 0.3; (treatment: MLN4924 1 uM, 8 h) 2.7 ± 0.4.
For AAPRTLAAHPPLPLLPPAMGTEPA [TBX6], in that order: 4.61 ± 0.43 and 4.57 ± 0.29.
In the same order, the values of SCSQGSGILHYAHGDSQQTHLLKQ [CRY1] are 3.29 ± 0.16 and 3.31 ± 0.2.
For PRLKEDQPWMVIEGIRQTEYTLTG [FSD1], in that order: 3.18 ± 0.34 and 3.12 ± 0.19.
With GSTMLIEAAKGGHTSVVCYLLDYP [ANKRD17], the protein stability index worked out at 2.59 ± 0.38 (treatment: DMSO) and 2.55 ± 0.56 (treatment: MLN4924 1 uM, 8 h).
In the same order, the values of AETDEHTGANTKKPEDTAEDLTAK [FAM9B] are 5.74 ± 0.23 and 5.62 ± 0.12.
In the same order, the values of PRCDLVDLGEGKICFCCEEFQPAK [FAM189A2] are 3.3 ± 0.44 and 3.67 ± 0.49.
In the same order, the values of SRKIAVEDENDLEELNNGEPQTEH [MIA2] are 5.61 ± 0.13 and 5.37 ± 0.29.
On to GGLNTETNEKALEAVFGKYGRIVE [RBMX], for which the protein stability index turned out to be 3.59 ± 0.26 (treatment: DMSO) and 3.22 ± 0.47 (treatment: MLN4924 1 uM, 8 h).
For VPGGAGPCATVSVFPGARLLTIGD [CARM1], in that order: 2.73 ± 0.43 and 2.53 ± 0.48.
In the same order, the values of GNQLISNNIKFKKSSILTRAGEQR [CLCN6] are 3.78 ± 0.13 and 4.06 ± 0.44.
In the same order, the values of HHWDHARGNPELARLRPGLAVLGA [HAGHL] are 3.1 ± 0.34 and 3.08 ± 0.45.
For the sequence SGTFAPISDRYSPELRQLVLSLLS [NEK8], the protein stability index by setting is: (treatment: DMSO) 2.12 ± 0.21; (treatment: MLN4924 1 uM, 8 h) 2.25 ± 0.38.
For LELSYGFENGQKAAVVHHFESFPA [TOR1AIP2], in that order: 2.52 ± 0.58 and 2.42 ± 0.18.
For RFYYQALSVAPQIGMPFNQLGTLA [SMG5], in that order: 2.63 ± 0.6 and 2.55 ± 0.61.
For VGGFDGTTYLKTIEVFDPDANTWR [KLHL20], in that order: 2.91 ± 0.12 and 2.92 ± 0.32.
Take ESLMKDGDKNNDGRIDFDEFLKMM [TNNC2]: the protein stability index is 4.53 ± 0.1 (treatment: DMSO) and 4.55 ± 0.31 (treatment: MLN4924 1 uM, 8 h).
In the same order, the values of CLDPIIYFFLCQPFREILCKKLHI [P2RY14] are 2.74 ± 0.2 and 3.252 ± 0.02.
With LAEALLHPFFAGLTPEERSFHTSR [CLK3], the protein stability index came out at 2.29 ± 0.2 (treatment: DMSO) and 2.21 ± 0.23 (treatment: MLN4924 1 uM, 8 h).
In the same order, the values of LTKSQVQDKPYKCTDCGKSFNHNA [ZNF8] are 3.32 ± 0.21 and 3.54 ± 0.27.
MNCLPSNRTLWRLDLAGNNIPGDV [LRRC45]: the protein stability index stood at 2.75 ± 0.37 (treatment: DMSO) and 2.86 ± 0.4 (treatment: MLN4924 1 uM, 8 h).
With SPIKKVRKSLALDIVDEDVKLMMS [MYBL2], the protein stability index worked out at 3.6 ± 0.34 (treatment: DMSO) and 3.68 ± 0.43 (treatment: MLN4924 1 uM, 8 h).
In the same order, the values of KDRMKSDHKRETERVVREALEKLR [ZMYND11] are 3.18 ± 0.13 and 3.58 ± 0.32.
For AELAETIVYARVLALHPEAPGLYN [CCDC3], in that order: 1.99 ± 0.077 and 2.55 ± 0.2.
For DLDACALVRGHRRRLLRRLSPSRG [ZSWIM9], in that order: 4.11 ± 0.46 and 4.12 ± 0.29.
Consider VKEKGSTLDLSDLEAEKLVMFQRR [SCD], for which the protein stability index is 4.06 ± 0.31 (treatment: DMSO) and 3.97 ± 0.31 (treatment: MLN4924 1 uM, 8 h).
Take AKGGFSGCSAVLSGGSSSSFRAGS [KRT71]: the protein stability index is, setting by setting: (treatment: DMSO) 3.17 ± 0.13; (treatment: MLN4924 1 uM, 8 h) 3.17 ± 0.24.
In the same order, the values of ASFDRRGEYIYTGNAKGKILVLKT [RBBP5] are 2.02 ± 0.19 and 2.29 ± 0.32.
For IVWFSFEFVVRCFACPSQALFFKN [KCNA4], in that order: 2.91 ± 0.1 and 2.72 ± 0.81.
Regarding GTTPQISPSTLIGSLRTLELGSES [HDAC6], the protein stability index (treatment: DMSO) was 4.52 ± 0.27.
Regarding EGGGGGSYFSGQGSDTGASLKLAS [JUNB], the protein stability index by setting is: (treatment: DMSO) 4.67 ± 0.12; (treatment: MLN4924 1 uM, 8 h) 4.72 ± 0.12.
For DELTLARTDLEMQIEGLNEELAYL [KRT15], in that order: 4.1 ± 0.21 and 4.42 ± 0.36.
In the same order, the values of AILVMHHSMKPHPAITATLLDFMC [INTS3] are 2.91 ± 0.36 and 2.98 ± 0.47.
For VAAGRTQKAGVTRSGRLILWEAPP [NEK8], in that order: 2.85 ± 0.24 and 2.94 ± 0.24.
